In patent US20110118131A1 (published 2011):
Where a chain is given by its changes, count along the chain named. Names and notes keep the numbering of the source.

B1: XPA23 light chain F94N (Fab, V domains shown)
VH: EVQLLESGGGLVQPGGSLRLSCAASGFTFSKYFMFWVRQAPGKGLEWVSVISPSGGMTRYADSVKGRFTISRDNSKNTLYLQMNSLRAEDTAVYYCARVGYGGNSDYWGQGTLVTVSS
VL: DIQMTQSPSSVSASVGDRLTIICRASQDINRWLAWYQQTPGNAPKLLIHSATSLQSGVPSRFSGSGSGTDFTLTINSLQPEDFATYYCQQADSNPLTFGGGTKVEIK
B2: XPA23 light chain L96H (Fab, V domains shown)
VH: B1 VH
VL: B1 VL with N94F, L96H
B3: XPA23 light chain L96Q (Fab, V domains shown)
VH: B1 VH
VL: B1 VL with N94F, L96Q
B4: XPA23 light chain L96F (Fab, V domains shown)
VH: B1 VH
VL: B1 VL with N94F, L96F
B5: XPA23 light chain H49G (Fab, V domains shown)
VH: B1 VH
VL: B1 VL with H49G, N94F
B6: XPA23 light chain H49L (Fab, V domains shown)
VH: B1 VH
VL: B1 VL with H49L, N94F
B7: XPA23 light chain F94R (Fab, V domains shown)
VH: B1 VH
VL: B1 VL with N94R
B8: XPA23 light chain H49W (Fab, V domains shown)
VH: B1 VH
VL: B1 VL with H49W, N94F
B9: XPA23 light chain F94Q (Fab, V domains shown)
VH: B1 VH
VL: B1 VL with N94Q
B10: XPA23 light chain L96E (Fab, V domains shown)
VH: B1 VH
VL: B1 VL with N94F, L96E
B11: XPA23 light chain H49F (Fab, V domains shown)
VH: B1 VH
VL: B1 VL with H49F, N94F
B12: XPA23 light chain L96R (Fab, V domains shown)
VH: B1 VH
VL: B1 VL with N94F, L96R
B13: XPA23 light chain H49E (Fab, V domains shown)
VH: B1 VH
VL: B1 VL with H49E, N94F
B14: XPA23 light chain H49T (Fab, V domains shown)
VH: B1 VH
VL: B1 VL with H49T, N94F
B15: XPA23 light chain H49R (Fab, V domains shown)
VH: B1 VH
VL: B1 VL with H49R, N94F
B16: XPA23 light chain L96D (Fab, V domains shown)
VH: B1 VH
VL: B1 VL with N94F, L96D
B17: XPA23 light chain H49P (Fab, V domains shown)
VH: B1 VH
VL: B1 VL with H49P, N94F
B18: XPA23 light chain H49D (Fab, V domains shown)
VH: B1 VH
VL: B1 VL with H49D, N94F
B19: XPA23 light chain L96S (Fab, V domains shown)
VH: B1 VH
VL: B1 VL with N94F, L96S
B20: XPA23 light chain F94W (Fab, V domains shown)
VH: B1 VH
VL: B1 VL with N94W
B21: XPA23 light chain H49V (Fab, V domains shown)
VH: B1 VH
VL: B1 VL with H49V, N94F
B22: XPA23 light chain H49K (Fab, V domains shown)
VH: B1 VH
VL: B1 VL with H49K, N94F
B23: XPA23 light chain F94S (Fab, V domains shown)
VH: B1 VH
VL: B1 VL with N94S
B24: XPA23 light chain H49S (Fab, V domains shown)
VH: B1 VH
VL: B1 VL with H49S, N94F
B25: XPA23 light chain H49N (Fab, V domains shown)
VH: B1 VH
VL: B1 VL with H49N, N94F
B26: XPA23 light chain F94Y (Fab, V domains shown)
VH: B1 VH
VL: B1 VL with N94Y
B27: XPA23 light chain H49Q (Fab, V domains shown)
VH: B1 VH
VL: B1 VL with H49Q, N94F
B28: XPA23 light chain H49Y (Fab, V domains shown)
VH: B1 VH
VL: B1 VL with H49Y, N94F
B29: XPA23 light chain H49I (Fab, V domains shown)
VH: B1 VH
VL: B1 VL with H49I, N94F
B30: XPA23 light chain L96K (Fab, V domains shown)
VH: B1 VH
VL: B1 VL with N94F, L96K
B31: XPA23 light chain L96N (Fab, V domains shown)
VH: B1 VH
VL: B1 VL with N94F, L96N
B32: XPA23 light chain H49A (Fab, V domains shown)
VH: B1 VH
VL: B1 VL with H49A, N94F

Target: T1, IL-1β (UniProt P01584 117-269)
T1 construct: Antigen immobilised on the Biacore chip
Experiment: Biacore, periplasmic extract

Row | binding result | fold difference in affinity vs original [fold] | Binder
1 | no binding | – | B1
2 | – | 0.07 | B2
3 | – | 0.21 | B3
4 | – | 0.28 | B4
5 | no binding | – | B5
6 | – | 0.07 | B6
7 | no binding | – | B7
8 | – | 0.21 | B8
9 | no binding | – | B9
10 | no binding | – | B10
11 | – | 0.5 | B11
12 | no binding | – | B12
13 | no binding | – | B13
14 | no binding | – | B14
15 | – | 0.21 | B15
16 | no binding | – | B16

Row | binding result | fold difference in affinity vs original [fold] | Binder
17 | – | 0.86 | B17
18 | – | 0.11 | B18
19 | – | 0.23 | B19
20 | no binding | – | B20
21 | no binding | – | B21
22 | – | 0.1 | B22
23 | no binding | – | B23
24 | – | 0.14 | B24
25 | – | 0.31 | B25
26 | no binding | – | B26
27 | no binding | – | B27
28 | – | 0.52 | B28
29 | no binding | – | B29
30 | no binding | – | B30
31 | – | 0.06 | B31
32 | – | 0.23 | B32
